According to US20230322953A1 (HARBOUR BIOMED SHANGHAI, published 2023):
Read-outs that look alike come from different tables or passages of the source.

Tests used:
[1] = target: T1, human BCMA on NCI-H929 cells (ATCC, CRL-9068) (human, UniProt Q02223 1-184); test: cell-based or functional assay
T1 sequence (looked up): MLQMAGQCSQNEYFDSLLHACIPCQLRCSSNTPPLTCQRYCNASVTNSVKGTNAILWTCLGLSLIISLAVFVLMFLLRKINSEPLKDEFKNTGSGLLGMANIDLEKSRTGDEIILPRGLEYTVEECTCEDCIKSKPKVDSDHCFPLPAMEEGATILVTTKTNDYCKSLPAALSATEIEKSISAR

[2] = target: T1, human BCMA on NCI-H929 cells (ATCC, …); test: cell-based or functional assay; remark: listed apart in the source
[3] = target: T1, human BCMA on NCI-H929 cells (ATCC, …); test: cell-based or functional assay; remark: listed apart in the source
[4] = target: T2, cynomolgus monkey CD3 (TCR/CD3 complex) on cynomolgus monkey T cells (cynomolgus monkey); test: flow cytometry (FACS) on cynomolgus monkey T cells
T2 construct: whole, on cells
T2 sequence (Q95LI5 22-198, one chain of several): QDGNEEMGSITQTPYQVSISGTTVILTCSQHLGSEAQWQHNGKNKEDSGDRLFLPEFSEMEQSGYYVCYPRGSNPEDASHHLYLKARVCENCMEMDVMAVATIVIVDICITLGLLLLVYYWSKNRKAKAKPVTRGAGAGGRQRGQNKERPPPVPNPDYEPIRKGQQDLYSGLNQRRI

[5] = target: T1, human BCMA on NCI-H929 cells (ATCC, …); test: cell-based or functional assay; remark: listed apart in the source
[6] = target: T3, biotinylated human BCMA-Fc, Avitag recombinant protein (ACRO Biosystems, #BC7-H82F0) (human, UniProt Q02223 1-54, biotinylated (Avitag)); test: BLI (Octet Red96e), biotinylated BCMA-Fc on SA sensor, 1:1 global fitting;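 also: Anti-BCMA antibodies analysed as binding partners of the captured BCMA antigen, with reference signals removed by double referencing before kinetic fitting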
T3 construct: extracellular domain; Bought protein; also called huBCMA.Fc; recombinant human BCMA-ECD-Fc
T3 sequence (looked up): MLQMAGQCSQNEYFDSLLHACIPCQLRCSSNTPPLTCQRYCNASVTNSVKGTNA

[7] = target: T4, cynomolgus monkey BCMA (ACRO Biosystems, #BCA-C82F4) (cynomolgus monkey, UniProt A0A2K5UD97 1-53); test: BLI (Octet Red96e), cyBCMA.Fc
T4 construct: Bought protein; also called cyBCMA.Fc

[8] = target: T5, human CD3 (TCR/CD3 complex) on human T cells (human, UniProt P07766 23-207); test: flow cytometry (FACS) on human T cells, Experiment 3
T5 construct: whole, on cells
T5 sequence (P07766 23-207, one chain of several): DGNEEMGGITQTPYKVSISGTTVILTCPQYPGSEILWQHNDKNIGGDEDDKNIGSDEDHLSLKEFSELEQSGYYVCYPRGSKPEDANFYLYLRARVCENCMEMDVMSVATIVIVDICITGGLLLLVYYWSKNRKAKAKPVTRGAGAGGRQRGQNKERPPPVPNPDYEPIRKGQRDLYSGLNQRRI

[9] = target: T6, cynomolgus monkey BCMA on cells (HEK293T/cyno BCMA) (cynomolgus monkey, UniProt A0A2K5UD97 1-183); test: FACS, HEK293T/cyno BCMA cells
T6 construct: whole, on cells
T6 sequence (A0A2K5UD97 entry or part of it): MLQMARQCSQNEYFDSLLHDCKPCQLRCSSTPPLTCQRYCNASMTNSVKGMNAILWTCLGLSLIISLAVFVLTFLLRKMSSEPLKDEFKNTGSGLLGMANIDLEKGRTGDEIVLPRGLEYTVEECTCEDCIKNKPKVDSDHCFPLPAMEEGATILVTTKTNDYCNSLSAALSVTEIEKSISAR

[10] = target: T7, cynomolgus monkey BCMA (ACRO Biosystems, #BCA-C82F4) (cynomolgus monkey, UniProt A0A2K5UD97 1-53); test: BLI, Octet Red96e
T7 construct: bought; also called cyBCMA.Fc

B1: PR002199, BCMA × CD3 bispecific antibody derived from WO2019133761A1 (bispecific antibody, human IgG1, kappa, L234A L235A)
chain 1: not shown
chain 2: EVQLVESGGGLVQPGRSLRLSCAASGFTFDDYAMHWVRQAPGKGLEWVSGISWNSGSIGYADSVKGRFTISRDNAKNSLYLQMNSLRAEDTALYYCAKDSRGYGDYRLGGAYWGQGTLVTVSSASTKGPSVFPLAPSSKSTSGGTAALGCLVKDYFPEPVTVSWNSGALTSGVHTFPAVLQSSGLYSLSSVVTVPSSSLGTQTYICNVNHKPSNTKVDKKVEPKSCDKTHTCPPCPAPEAAGGPSVFLFPPKPKDTLMISRTPEVTCVVVDVSHEDPEVKFNWYVDGVEVHNAKTKPREEQYNSTYRVVSVLTVLHQDWLNGKEYKCKVSNKALGAPIEKTISKAKGQPREPQVYTLPPCREEMTKNQVSLWCLVKGFYPSDIAVEWESNGQPENNYKTTPPVLDSDGSFFLYSKLTVDKSRWQQGNVFSCSVMHEALHNHYTQKSLSLSPGK
chain 3: EVQLLESGGGLVQPGGSLRLSCAASGFTVSSYGMSWVRQAPGKGPEWVSGIRGSDGSTYYADSVKGRFTISRDNSKNTLYLQMNSLRAEDTAVYYCAKQGENDGPFDHRGQGTLVTVSSGGGGSEVQLLESGGGLVQPGGSLRLSCAASGFTVSSYGMSWVRQAPGKGPEWVSGIRGSDGSTYYADSVKGRFTISRDNSKNTLYLQMNSLRAEDTAVYYCAKQGENDGPFDHRGQGTLVTVSSASEPKSSDKTHTCPPCPAPEAAGGPSVFLFPPKPKDTLMISRTPEVTCVVVDVSHEDPEVKFNWYVDGVEVHNAKTKPREEQYNSTYRVVSVLTVLHQDWLNGKEYKCKVSNKALGAPIEKTISKAKGQPREPQVCTLPPSREEMTKNQVSLSCAVKGFYPSDIAVEWESNGQPENNYKTTPPVLDSDGSFFLVSKLTVDKSRWQQGNVFSCSVMHEALHNHYTQKSLSLSPGK
notes: Three polypeptide chains; also called Positive control 2
IFN-γ release, EC50 [1]: 0.483 nM
IFN-γ release, Maximum [1]: 1020 pg/mL
IL-2 release, EC50 [1]: 2.27 nM
IL-2 release, Maximum [1]: 21.5 pg/mL
IL-6 release, EC50 [1]: 13.1 nM
IL-6 release, Maximum [1]: 245 pg/mL
IL-10 release, EC50 [1]: 0.861 nM
IL-10 release, Maximum [1]: 583 pg/mL
NCI-H929 killing, EC50 [1]: 0.16 nM
NCI-H929 killing, Maximum killing rate % [1]: 61.2%
TNF-α release, EC50 [1]: 0.464 nM
TNF-α release, Maximum [1]: 608 pg/mL
IFN-γ release, EC50 [2]: 0.261 nM
IFN-γ release, Maximum [2]: 658 pg/mL
IL-2 release, EC50 [2]: 0.312 nM
IL-2 release, Maximum [2]: 25.8 pg/mL
IL-6 release, EC50 [2]: 0.341 nM
IL-6 release, Maximum [2]: 71.4 pg/mL
IL-10 release, EC50 [2]: 0.335 nM
IL-10 release, Maximum [2]: 190 pg/mL
NCI-H929 killing, EC50 [2]: 0.115 nM
NCI-H929 killing, Maximum killing rate % [2]: 62%
TNF-α release, EC50 [2]: 0.224 nM
TNF-α release, Maximum [2]: 1020 pg/mL
Killing EC50 (nM), PBMC + NCI-H929, + 62.5 ng/ml sBCMA [3]: 0.8 nM
Killing EC50 (nM), PBMC + NCI-H929, + 125 ng/ml sBCMA [3]: 1 nM
Killing EC50 (nM), PBMC + NCI-H929, + 250 ng/ml sBCMA [3]: 3.5 nM
Killing EC50 (nM), PBMC + NCI-H929, + 500 ng/ml sBCMA [3]: 7.7 nM
Killing EC50 (nM), PBMC + NCI-H929, no sBCMA [3]: 0.2 nM
Maximum MFI [4]: 1110 MFI
Killing EC50 (nM), PBMC + NCI-H929, + 10 ng/mL sBAFF [5]: 0.063 nM
Killing EC50 (nM), PBMC + NCI-H929, + 10 ng/ml sAPRIL [5]: 0.096 nM
Killing EC50 (nM), PBMC + NCI-H929, + 100 ng/mL sBAFF [5]: 0.076 nM
Killing EC50 (nM), PBMC + NCI-H929, + 100 ng/ml sAPRIL [5]: 0.253 nM
Killing EC50 (nM), PBMC + NCI-H929, no soluble ligand [5]: 0.103 nM
Kd [6]: 0.0452 nM
koff [6]: 2.46e-05 s⁻¹
kon [6]: 545000 M⁻¹ s⁻¹
binding result [7]: no binding
Maximum MFI [8]: 6850 MFI

B2: PR002199, BCMA×CD3 bispecific antibody derived from WO2019133761A1 (bispecific antibody, human IgG1, kappa, L234A L235A)
chain 1: not shown
chain 2: B1 chain 2
chain 3: B1 chain 3
notes: also called positive control 2
binding result [9]: no binding
binding result [10]: no binding
